Laboratory results taken from patent US20140105889A1 (published 2014).
Substitutions are numbered along the chain they refer to. Names may count otherwise.

T1: human FcγRIIa(R) (human, UniProt P12318 36-217)
T1 construct: Analyte in solution on Biacore; also called FcγRIIa type R; FcgRIIaR
T1 chain: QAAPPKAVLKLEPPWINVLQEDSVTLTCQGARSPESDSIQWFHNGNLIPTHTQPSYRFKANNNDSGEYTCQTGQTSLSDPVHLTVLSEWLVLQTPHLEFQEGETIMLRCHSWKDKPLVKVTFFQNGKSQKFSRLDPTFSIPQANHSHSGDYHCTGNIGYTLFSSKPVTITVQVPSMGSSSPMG

T2: human FcγRIIb (human, UniProt P31994 43-217)
T2 construct: also called FcγIIB
T2 sequence: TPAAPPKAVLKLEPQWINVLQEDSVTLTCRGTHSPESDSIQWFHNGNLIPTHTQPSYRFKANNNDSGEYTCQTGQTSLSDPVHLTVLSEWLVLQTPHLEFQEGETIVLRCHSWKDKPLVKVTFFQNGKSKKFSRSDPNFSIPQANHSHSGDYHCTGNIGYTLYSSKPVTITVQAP

B1: GpH7-B3 variant P331G / GpL16-k0 (antibody, human IgG1)
heavy: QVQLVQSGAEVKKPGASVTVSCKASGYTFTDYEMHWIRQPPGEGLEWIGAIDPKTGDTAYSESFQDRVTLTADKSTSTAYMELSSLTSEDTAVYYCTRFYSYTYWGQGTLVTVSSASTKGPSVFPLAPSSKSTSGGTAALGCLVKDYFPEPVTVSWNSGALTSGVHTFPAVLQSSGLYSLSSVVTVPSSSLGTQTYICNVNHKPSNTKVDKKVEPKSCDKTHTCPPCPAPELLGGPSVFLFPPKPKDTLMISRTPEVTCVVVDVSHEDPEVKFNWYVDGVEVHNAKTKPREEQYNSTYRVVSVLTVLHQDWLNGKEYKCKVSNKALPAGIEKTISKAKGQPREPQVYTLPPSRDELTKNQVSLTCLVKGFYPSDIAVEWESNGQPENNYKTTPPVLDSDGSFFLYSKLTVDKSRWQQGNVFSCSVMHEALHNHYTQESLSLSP
light: DIVMTQSPLSLPVTPGEPASISCQASESLVHSNRNTYLHWYLQKPGQSPQLLIYKVSNRFSGVPDRFSGSGSGTDFTLKISRVEAEDVGVYYCSQNTHVPPTFGQGTKVEIE
notes: Anti-glypican-3 IgG1; constant region B3 = G1d with K439E
B2: IL6R-BP188/IL6R-L (antibody, human IgG1)
heavy: QVQLQESGPGLVKPSETLSLTCAVSGHSISHDHAWSWVRQPPGEGLEWIGFISYSGITNYNPSLQGRVTISRDNSKNTLYLQMNSLRAEDTAVYYCARSLARTTAMDYWGEGTLVTVSSASTKGPSVFPLAPSSKSTSGGTAALGCLVKDYFPEPVTVSWNSGALTSGVHTFPAVLQSSGLYSLSSVVTVPSSSLGTQTYICNVNHKPSNTKVDKKVEPKSCDKTHTCPPCPAPDLLGDDSVFLFPPKPKDTLMISRTPEVTCVVVDVSDEDGEVKFNWYVDGVEVHNAKTKPREEQYNSTYRVVSVLTVLHQDWLNGKEYKCKVSNKALPKPIEKTISKAKGQPREPQVYTLPPSRDELTKNQVSLTCLVKGFYPSDIAVEWESNGQPENNYKTTPPVLDSDGSFFLYSKLTVDKSRWQQGNVFSCSVMHEALHNHYTQESLSLSP
light: DIQMTQSPSSLSASVGDRVTITCRASQDISSYLNWYQQKPGKAPKLLIYYTSRLHSGVPSRFSGSGSGTDFTFTISSLQPEDIATYYCQQGNTLPYTFGQGTKVEIK
notes: Anti-human IL-6 receptor human IgG1 variant; copies: 2 + 2
B3: IL6R-BP191/IL6R-L (antibody, human IgG1)
heavy: B2 heavy with D239G, K328A
light: B2 light
notes: as for B2
B4: IL6R-BP195/IL6R-L (antibody, human IgG1)
heavy: B2 heavy with L236Y, Y298D, K328A
light: B2 light
notes: as for B2
B5: IL6R-BP196/IL6R-L (antibody, human IgG1)
heavy: B2 heavy with D235E, L236Y, D239G, K328A
light: B2 light
notes: as for B2
B6: IL6R-BP197/IL6R-L (antibody, human IgG1)
heavy: B2 heavy with L236Y, Y298D, K328D
light: B2 light
notes: as for B2
B7: IL6R-BP198/IL6R-L (antibody, human IgG1)
heavy: B2 heavy with L236Y, D239G, K328A
light: B2 light
notes: as for B2
B8: IL6R-BP190/IL6R-L (antibody, human IgG1)
heavy: B2 heavy with D235E
light: B2 light
notes: as for B2
B9: IL6R-BP199/IL6R-L (antibody, human IgG1)
heavy: B2 heavy with D239G, D270H, G273P, K328D, K332R
light: B2 light
notes: Anti-human IL-6 receptor human IgG1 variant; uncertain; copies: 2 + 2

Assays:
human FcγRIa = molecular target: T3, human FcγRIa (human, UniProt P12314 16-292, limits assumed); assay: SPR (Biacore), antibody captured on chip, FcγR as analyte, HBS-EP+, 25°C;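 note: FcγR binding response divided by the amount of captured antibody, then expressed relative to the reference antibody ×100, with antibodies captured via immobilized Protein A, A/G, L or antigen peptides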
T3 construct: Analyte in solution on Biacore; also called FcgRIa; hFcgRIa
Description: (§1) Interaction between each modified antibody and Fcγ receptor prepared in the manner described above was analyzed using the Biacore T100 (GE Healthcare), Biacore T200 (GE Healthcare), Biacore A100 or Biacore 4000. HBS-EP+ (GE Healthcare) was used for the running buffer, and measurements were carried out at 25° C. The chips used were chips in which antigen peptides, Protein A (Thermo Scientific), Protein A/G (Thermo Scientific) or Protein L (ACTIGEN or BioVision) were immobilized on the Series S Sensor Chip CM5 (GE Healthcare) or Series S Sensor Chip CM4 (GE Healthcare) by amine coupling, or chips in which preliminarily biotinylated antigen peptides were allowed to interact and then immobilized on the Series S Sensor Chip SA (certified) (GE Healthcare). The target antibodies were captured on these sensor chips, Fcγ receptor diluted with the running buffer was allowed to interact, followed by measurement of the amount of bound antibody. The amounts bound were compared between antibodies. However, since the amount of Fcγ receptor bound depends on the amount of captured antibody, the values used for comparison were first corrected by dividing the amount of Fcγ receptor bound by the captured amount of each antibody. Through reaction with 10 mM glycine-HCl at pH 1.5, the sensor chips were regenerated by washing off antibody captured on the sensor chips and used repeatedly.
(§2) Binding strength was evaluated according to the following method based on the results of analyzing the interaction with each FcγR. […] That value was then further multiplied by 100, and the resulting value was used as an indicator of relative binding activity to each FcγR.

human FcγRIIa(R) = molecular target: T1, human FcγRIIa(R); assay: as above
Description: as §1, §2

[1] = molecular target: T4, human FcγRIIIa type V (allotype V158) (human, UniProt P08637 17-208, limits assumed); assay: SPR (Biacore), antibody captured on the chip, FcγR as analyte
T4 construct: the assay used allotype V158; also called FcγRIIIaV; FcγRIIIa(V)

human FcγRIIb = molecular target: T2, human FcγRIIb; assay: SPR (Biacore); KD of parent IL6R-B3/IL6R-L for FcγRIIb divided by KD of the variant for FcγRIIb
Excerpt: Furthermore, KD(IIaR)/KD(IIb) and KD(IIaH)/KD(IIb) in the table respectively represent the value obtained by dividing the KD value of each variant for FcγRIIaR by the KD value of each variant for FcγRIIb, and the value obtained by dividing the KD value of each variant for FcγRIIaH by the KD value of each variant for FcγRIIb.

T4 sequence (P08637 other isoform, or with tags, fused parts or gaps limits assumed): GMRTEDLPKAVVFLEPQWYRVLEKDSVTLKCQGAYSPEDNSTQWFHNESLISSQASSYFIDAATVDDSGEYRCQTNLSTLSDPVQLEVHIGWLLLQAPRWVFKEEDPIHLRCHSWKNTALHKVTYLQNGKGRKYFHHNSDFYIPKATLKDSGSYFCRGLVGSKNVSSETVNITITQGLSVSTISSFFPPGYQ
T3 sequence (P12314 16-292 limits assumed): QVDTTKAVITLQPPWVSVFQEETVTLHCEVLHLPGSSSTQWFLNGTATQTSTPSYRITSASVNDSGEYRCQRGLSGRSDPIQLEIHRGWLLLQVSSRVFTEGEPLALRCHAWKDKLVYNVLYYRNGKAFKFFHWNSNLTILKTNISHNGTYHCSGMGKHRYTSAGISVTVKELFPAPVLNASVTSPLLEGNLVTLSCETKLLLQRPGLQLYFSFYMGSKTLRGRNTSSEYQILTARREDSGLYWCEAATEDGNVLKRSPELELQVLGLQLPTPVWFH

Row | relative binding activity (% of GpH7-B3/GpL16-k0) (human FcγRIa) [%] | relative binding activity (% of GpH7-B3/GpL16-k0) (human FcγRIIa(R)) [%] | Kd [1] [µM] | KD(IIb) of the parent polypeptide/KD(IIb) of the altered polypeptide (human FcγRIIb) | Binder
1 | 88 | 13 | – | – | B1
2 | – | – | 68 | 87.6 | B2
3 | – | – | 49 | 21.2 | B3
4 | – | – | 31 | 82 | B4
5 | – | – | 51 | 13.9 | B5
6 | – | – | 33 | 53.7 | B6
7 | – | – | 44 | 15.7 | B7
8 | – | – | 45 | 53.2 | B8
9 | – | – | 61 | 6.3 | B9
